Experimental data published in EP0969015A2, “Peptide diagnostic markers for human disorders” (Ortho-Clinical Diagnostics, Inc., priority 1998, dated 2000).

Tests used:
[1] = Stability of peptides in urine samples; details: compared with the gluten/casein related peptides; not studied in a systematic manner
[2] = relative to morphine; cited from earlier work

NH4-Tyr AlaPheGluValValGly-COOH (H-YAFEVVG-OH) [deltorphin II]
stability in urine [1]: more stable in urine than the gluten/casein related peptides

NH4-TyrAlaPheGlyTyrProSer-COOH [dermorphin]
opiate activity [2]: 1000 times | stability in urine [1]: more stable in urine than the gluten/casein related peptides
